Measured values from the DeepSol protein solubility set.

Test: soluble on expression in E. coli; label from the status in PepcDB or PDB records

Soluble on expression in E. coli, not soluble:
MGSDKIHHHHHHMKLVKTGILPLDTQLGGGMPAGSVVSVFEEPGAGADVLSYHFTVEGATHGENVFYLATDDSSEEIREYINLYFDLDEAVWENITLLSLRASMQQEEGEKDAKDFLRKTIYDPIGGIKTILSHEEFERVVINNFTYFLANYPIEDVIALIDVLSNYAKRNQSVVMLLVTKGMFDPRTETTVKHYSDGVIELTLKEVENEVQRRLKVVKFKGILVPKAILRYELTDKGIKMESVMRVL
MGSDKIHHHHHHMKNAAISDSTLVSQYIQGNEEAFAELIKRHKSKVYSTIYLIVKDRYLAEDLLQDVFIKVIHKMKGGQYNDEGKFLPWVVRIAHNLAIDYFRRNKRYPTIVMDEGMNIFNSLNFSEDSTESIQIKGENEALIRSLIHKLPESQREVVLMRHFSDMSFQEIADSTGVSINTALGRMRYALINLRKELTKQPKPIVYDKNVYPK
MGSDKIHHHHHHMKNKIGSFVIADPNKCTGCRACEVACFTMHNQHNNVGYTVGTVDIPVIPRLYLVKGDNFCMPIQCRHCEDAPCLNSCPQKAIVKENNIMSVNEEKCIGCKTCLLACPFGAIDLLPQYEDGKEVEQVILDENKKIAYKCDLCKDNEKIACISACPQKALKLVTPIDDKKAKNRQAALSLLLTNK
MGSDKIHHHHHHMKNLPSLKNLYYLVHLHQEQNFNRAAKMCFVSQSTLSSGIQNLEEQLGYQLIERDHKSFMFTAIGEEVVERARNILTNVDDLVELVKNQGEPMTGEIRLGCIPTIAPFLLSRVVKLCQQDYPKLSLLLKEDTTERLLDALAKGELDLLILALPVDTSGFHSMKVGIDPFKMVMHKEVSQQFLQPIDYQKMPDESIFLLQAEHCITGHAITACQLGDSAKINPFAATSLHTLVQMVNSKLGTTFLPQMAIDTGILTDTDLVAMDPPGEAPYRDIGLVWRQTTSRISTFRTLGLAIQQKLLAQSLPS
MGSDKIHHHHHHMKNNTGYIIGAYPCAPSFHQKSEEEETEFWRQLSDTPDIRGLEQPCLEHLHPLGDEWLLRHTPGNWQIVVTAIMETMRRRSENGGFGLASSDEEQRKACVEYYRHLYQKINKINGNNTGKVIALELHAAPLAGNPNVAQATDAFARSLKEIANWDWSCDLVLEHCDAMTGPAPRKGFLPLVNVLETIADYDISVCINWARSAIEGRDTSLPLIHTQQAKQAGKLGALMFSGTTLDGEYGEWQDLHAPFAPFCPQSLMTEKHVKELITAAAPELLQFTGIKLLEINASADINHRINILRDGINMMKKATRR
MGSDKIHHHHHHMKNSPLNGLNGLKAFLETKPKEYHKFDPSRFIQIYKDFKNAFFEIQAKVIHVVGTNGKGSTGRFLTLLLADQNFKVLHFTSPHVFEFRERFFLNGSVVGESVLENAHQQLQSHAFSSACSYFEYATLLAVMLAKDCDYLVLEAGLGGEFDSTNALKKTLSVFTPIDYDHKEFLGDSLESIAQTKLKAMGSLSIIAPQQELVLNAAQKIAKEKHAKLIVVQNEISKGVRDYIERYHLARFLAMNLEVALKAFETLLPCNKQEVLKNLKPLNLIGRCELLSPNILIDVGHNPHSAKALKEEIKRIFNAKIILIYNCYQDKDAFLVLEILKPVIKKVLILELHEERVIKLEKLKGILETLGLEYALFEDVEENENYLVYGSFLVANAFYKRYQEKRD
MGSDKIHHHHHHMKNTVAFKTITGRDAVYKAYDAFLGNMGIPHEEVNVDTRFGKAFVIAAGKKDAPVLVLLHGSGINSVMWIKDMEKYSEHYRVYAVDLQGEPGKSDGKQLSFEGSDFDNWLHDVFAGLSVEKASIAGISLGAWLALKFAIANPQMVDKLVLLCPAGVGPQKTSFAYVSLFHMLLWGEKGVERLFRKVNGGKPIPQEIMDYQKLLGNNFNFRREQVPLFSDAELTQLTIPSILFVGQKDVMFHSLKTAQRYRNLVPDAKVIVLREAGHTLIGLVDDILEFLQN
MGSDKIHHHHHHMKPEIALNLWQLLWQEYSARVNHARTYQQMITTAGGTVANDHIAFRSLRLLVDSPQGEVNLGIDYLAQFAEALGYVAAGEYNFAQTHLYARYYRHPQQEEFNLPKLFISELIVDELPANIAQLISKTVSAIPHQLASPVTLLKKDAEIETIAKQLQQVFTRPWLPPRRSVVEEVNQVTQYGAWVLLHGYGVNHFTGYVNGQNTPEYPDIDTTASGLAHLGVPMKAEIEGNVACGLRQTATQAVTEMVTVLDDNSGVEIQIPWTYAYYEIAQRYPVEVEPGKQILFDAFLGSNAQQLFEMTRLSK
MGSDKIHHHHHHMKPHTLLIVDDDDTVAEMLELVLRGAGYEVRRAASGEEALQQIYKNLPDALICDVLLPGIDGYTLCKRVRQHPLTKTLPILMLTAQGDISAKIAGFEAGANDYLAKPFEPQELVYRVKNILARTTIETPTTPVQRGKVITVFGAKGGVGKTTIAVSVALALRLRSRRRVVIVDADLTFGDVAVHLNIAPTRSIIDIVRSGDEIEQEMVKQVLLSHPSGLQALLAPPRPEEAELVSAEHMTRILDLLAVNADYVVVDCQTSYDDRTLSVFDRTDHVLLVITPEIGPLKNTSLFLSLANQLGIDPRAISIVLNRSNSGVGIGVNEIERVLRRKINYHVMSGGQPVVTAVNRGTPLILEQPKHPFVQQILYLADQMMKQLDTNQNVQTDTVTR
MGSDKIHHHHHHMKPQLIASCWTSAGDAAPDRDDLSSPVAIDERIALVAETGWAGIGLVHADLIKARDTIGYEELRRRIHAAGIEIIEVEFLNGWWATGAERQESDAVRADLFAAAQALGSPHIKVGAGEGTNGVVPIAHMASAFTDLAAEAEAHGVKLALEATPFSHLKTIYDALEVVSHSDSPSAGLMVDIWHTAKIGIPNDELWRNIPLSKVNAVEVDDGFIDTPIDLFDDSTNRRAYCGEGEFDPASFIRGAIDAGWTGAYGVEIISAEHRSLPVKEGLQRAFDTTIAAFEQAARLAPSTN
MGSDKIHHHHHHMKQAYIFDMDGTLFQTNRILGHALEDAFDFLRMNGRWTGKTPLAEYQTIMGVSLPEVWQTLLPGHSDEERALVDRIFQDALIRHIEQGQGALYSGAEATLQALKETGHPLYIASNGWKVYLTAIVRQYGLNRWLDGVYSIEDVASSQKSDLVAYILSEHQLTDMVVVGDRISDFQAAKVNRLPAVGCRFDFSNEAELEQADVIIDDLRELFQIDLKAVTK
MGSDKIHHHHHHMKQDRRKLFVLDTNVLLHEPLAIYSFKEHDVVIPMTVLEELDNIKDRKHDISRDARVAIRALEDILGGPTTPEQILKGVPLPSREGHLDVAGSLSIFPDHQVDFIAGALPGDNNDNLIINVALHLQKVHKPRTVVLVTKDINMRLKAKGAGIEKVEDYRTDQLIDDIRFLAKGFYQFEGDFWSKLDKVTTERQGKHTIHHVPIAALGKEAFYLNQYLLDDEANFCGRITGKTDTQLDIIDLGRDRLNHIEAWGIKPKNIYQGMALNALLDPEIDLVILTGPAGCGKTLLAIAAALELVVERKRYDKIIVTRNTPEIAESIGFLPGTEEEKMAPWLAAITDTLEVLHKNDVNPSGSMNYIMEKANIQFKSINFMRGRSIQNSVVLLDECQNLTASQIKTMITRMGEGTKLICCGNLSQIDSTYLTAVTSGLTYIVERFKDFEGSANVYLNGVVRSRLAEYAEEHL
MGSDKIHHHHHHMKQFQIVGIGNALVDVLSHCDDAFLAENGIAKGIMQLIDMGRAVDLYGRIGPAQEISGGSAANTIAGIAQLGGRTAYVGKVCDDQLGAIFAHDLRAQGAVYETPMAPKGGAQETGRCIILVSPDGERSMNTCLGWSEFLTPDDIDEAQMASTEWIYLEGYRFDGPESHAAFAKAIAACRGAGGRVSLTLSDPFCVERHRDAFRRMIREDVDLLFANRAEILSMYRTEDFGAALKAAAAEVAIVACTESEKGAHILADGQHWHVPALPTQIVDATGAGDLFAGAFLWGLTHGHGYETAGRMGCIAASEVISHLGARPEADLRALFRAQGVL
MGSDKIHHHHHHMKRAYAMPLTNPSFPPGPYRFFDREYIIITYRTTREALEAVVPAPLEIDEPLVKYEFIRMPDSTGFGDYTETGQVIPVKYKGQHGGYVHSMYLDDDAPIAGGRELWGFPKKLANPKIVHEGEVIVGTLHYGSVLCATGTMGYKHREADHDSVLASLAAPNFLIKIIPHVDGGPRICELVRYYLTDITLKEAWTAPAALDLRPHVMADVAKLPVLDIISAVHFKADLTLGLGEVVHDYLSDHNRLATSTTQPEKIRA
